The chains are these.
B1: sulfamidase (SEQ ID NO:2) chemically modified according to the known method (WO 2008/109677): 20 mM sodium meta-periodate 0 °C 6.5 h, dialysis, 100 mM sodium … (enzyme)
chain: GSRPRNALLLLADDGGFESGAYNNSAIATPHLDALARRSLLFRNAFTSVSSCSPSRASLLTGLPQHQNGMYGLHQDVHHFNSFDKVRSLPLLLSQAGVRTGIIGKKHVGPETVYPFDFAYTEENGSVLQVGRNITRIKLLVRKFLQTQDDRPFFLYVAFHDPHRCGHSQPQYGTFCEKFGNGESGMGRIPDWTPQAYDPLDVLVPYFVPNTPAARADLAAQYTTVGRMDQGVGLVLQELRDAGVLNDTLVIFTSDNGIPFPSGRTNLYWPGTAEPLLVSSPEHPKRWGQVSEAYVSLLDLTPTILDWFSIPYPSYAIFGSKTIHLTGRSLLPALEAEPLWATVFGSQSHHEVTMSYPMRSVQHRHFRLVHNLNFKMPFPIDQDFYVSPTFQDLLNRTTAGQPTGWYKDLRHYYYRARWELYDRSRDPHETQNLATDPRFAQLLEMLRDQLAKWQWETHDPWVCAPDGVLEEKLSPQCQPLHNEL
modifications: N-glycans at N(21), N(131), N(244), N(393) of SEQ ID NO:1 disrupted by periodate oxidation and borohydride reduction; FGly50 about 56% converted to Ser50; methionine 184 and methionine 443 almost completely oxidized
B2: sulfamidase (SEQ ID NO:2) chemically modified according to new method 1: 20 mM sodium meta-periodate 0 °C 120 min, 50 mM sodium borohydride 0 °C 120 min (enzyme)
chain: GSRPRNALLLLADDGGFESGAYNNSAIATPHLDALARRSLLFRNAFTSVSSCSPSRASLLTGLPQHQNGMYGLHQDVHHFNSFDKVRSLPLLLSQAGVRTGIIGKKHVGPETVYPFDFAYTEENGSVLQVGRNITRIKLLVRKFLQTQDDRPFFLYVAFHDPHRCGHSQPQYGTFCEKFGNGESGMGRIPDWTPQAYDPLDVLVPYFVPNTPAARADLAAQYTTVGRMDQGVGLVLQELRDAGVLNDTLVIFTSDNGIPFPSGRTNLYWPGTAEPLLVSSPEHPKRWGQVSEAYVSLLDLTPTILDWFSIPYPSYAIFGSKTIHLTGRSLLPALEAEPLWATVFGSQSHHEVTMSYPMRSVQHRHFRLVHNLNFKMPFPIDQDFYVSPTFQDLLNRTTAGQPTGWYKDLRHYYYRARWELYDRSRDPHETQNLATDPRFAQLLEMLRDQLAKWQWETHDPWVCAPDGVLEEKLSPQCQPLHNEL
modifications: N-glycans at N(21), N(131), N(244), N(393) of SEQ ID NO:1 disrupted by periodate oxidation and borohydride reduction; FGly50 about 45% converted to Ser50
B3: sulfamidase (SEQ ID NO:2) chemically modified according to new method 2: 20 mM sodium meta-periodate 0 °C 120 min, 10 mM sodium borohydride 0 °C 120 min (enzyme)
chain: GSRPRNALLLLADDGGFESGAYNNSAIATPHLDALARRSLLFRNAFTSVSSCSPSRASLLTGLPQHQNGMYGLHQDVHHFNSFDKVRSLPLLLSQAGVRTGIIGKKHVGPETVYPFDFAYTEENGSVLQVGRNITRIKLLVRKFLQTQDDRPFFLYVAFHDPHRCGHSQPQYGTFCEKFGNGESGMGRIPDWTPQAYDPLDVLVPYFVPNTPAARADLAAQYTTVGRMDQGVGLVLQELRDAGVLNDTLVIFTSDNGIPFPSGRTNLYWPGTAEPLLVSSPEHPKRWGQVSEAYVSLLDLTPTILDWFSIPYPSYAIFGSKTIHLTGRSLLPALEAEPLWATVFGSQSHHEVTMSYPMRSVQHRHFRLVHNLNFKMPFPIDQDFYVSPTFQDLLNRTTAGQPTGWYKDLRHYYYRARWELYDRSRDPHETQNLATDPRFAQLLEMLRDQLAKWQWETHDPWVCAPDGVLEEKLSPQCQPLHNEL
modifications: N-glycans of SEQ ID NO:1 sites disrupted by periodate oxidation and borohydride reduction; FGly50 about 11.5% converted to Ser50

Some results are limits rather than exact numbers.

In this assay the target is M6P receptors expressed on MEF-1 fibroblasts. In words: cell-based or functional assay.
As for B1, the receptor mediated endocytosis in MEF-1 cells: specific activity in cell homogenate relative to unmodified recombinant sulfamidase (% of unmodified recombinant sulfamidase) was less than 10.

B2: the receptor mediated endocytosis in MEF-1 cells: specific activity in cell homogenate relative to unmodified recombinant sulfamidase (% of unmodified recombinant sulfamidase) is less than 10. For B3, the receptor mediated endocytosis in MEF-1 cells: specific activity in cell homogenate relative to unmodified recombinant sulfamidase (% of unmodified recombinant sulfamidase) is less than 10.
